B1: rat albumin (other)
chain: EAHKSEIAHRFKDLGEQHFKGLVLIAFSQYLQKCPYEEHIKLVQEVTDFAKTCVADENAENCDKSIHTLFGDKLCAIPKLRDNYGELADCCAKQEPERNECFLQHKDDNPNLPPFQRPEAEAMCTSFQENPTSFLGHYLHEVARRHPYFYAPELLYYAEKYNEVLTQCCTESDKAACLTPKLDAVKEKALVAAVRQRMKCSSMQRFGERAFKAWAVARMSQRFPNAEFAEITKLATDVTKINKECCHGDLLECADDRAELAKYMCENQATISSKLQACCDKPVLQKSQCLAEIEHDNIPADLPSIAADFVEDKEVCKNYAEAKDVFLGTFLYEYSRRHPDYSVSLLLRLAKKYEATLEKCCAEGDPPACYGTVLAEFQPLVEEPKNLVKTNCELYEKLGEYGFQNAVLVRYTQKAPQVSTPTLVEAARNLGRVGTKCCTLPEAQRLPCVEDYLSAILNRLCVLHEKTPVSEKVTKCCSGSLVERRPCFSALTVDETYVPKEFKAETFTFHSDICTLPDKEKQIKKQTALAELVKHKPKATEDQLKTVMGDFAQFVDKCCKAADKDNCFATEGPNLVARSKEALA
notes: also called rat serum albumin; albumin from rat sera
B2: rat TNF-alpha (ligand)
chain: LRSSSQNSSDKPVAHVVANHQAEEQLEWLSQRANALLANGMDLKDNQLVVPADGLYLIYSQVLFKGQGCPDYVLLTHTVSRFAISYQEKVSLLSAIKSPCPKDTPEGAELKPWYEPMYLGGVFQLEKGDLLSAEVNLPKYLDITESGQVYFGVIAL

How the values were obtained:
VL18-3L-VL11 PEP DI #7 [1] = molecular target: T1, VL18-3L-VL11 PEP DI #7; assay: Biacore (SPR)
T1 construct: also called Variant #7

human TNF-alpha [2] = molecular target: T2, human TNF-alpha (human, UniProt P01375 77-233); assay: ELISA, human TNF-alpha coated (80 ng/well), anti-HA-HRP, OD 405 nm, one unstated fragment concentration
T2 construct: Immobilised on a CM5 chip or coated on ELISA plates
T2 sequence (P01375 77-233 limits assumed): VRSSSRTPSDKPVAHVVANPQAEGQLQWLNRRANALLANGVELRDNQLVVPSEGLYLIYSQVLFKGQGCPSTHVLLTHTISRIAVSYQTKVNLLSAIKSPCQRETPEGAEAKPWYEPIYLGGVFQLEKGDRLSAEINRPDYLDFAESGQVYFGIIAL
Method: (§1) Relative binding activities of VL monomers and constructed dimers were measured for human and rat TNF-alpha, while BSA was used as a negative control. Briefly, a 384-well ELISA plate was coated with 80 ng of human or rat TNF-alpha and incubated overnight at 4° C. Wells were blocked for one hour at 37° C. with 3% BSA in PBS. Antibody fragments were added to the wells and incubated for 1 h at room temperature. After washing the wells with PBS, anti-HA-HRP mAb (Roche) was used for detection.

rat TNF-alpha [3] = molecular target: B2; assay: ELISA, rat TNF-alpha coated (80 ng/well), anti-HA-HRP, OD 405 nm, one unstated fragment concentration
Method: as §1

BSA = molecular target: T3, BSA (bovine, UniProt P02769); assay: ELISA, BSA as negative-control antigen, anti-HA-HRP, OD 405 nm
T3 construct: coated as negative-control antigen; Negative control antigen of the ELISAs; also called bovine serum albumin
T3 sequence (P02769 25-607 limits assumed): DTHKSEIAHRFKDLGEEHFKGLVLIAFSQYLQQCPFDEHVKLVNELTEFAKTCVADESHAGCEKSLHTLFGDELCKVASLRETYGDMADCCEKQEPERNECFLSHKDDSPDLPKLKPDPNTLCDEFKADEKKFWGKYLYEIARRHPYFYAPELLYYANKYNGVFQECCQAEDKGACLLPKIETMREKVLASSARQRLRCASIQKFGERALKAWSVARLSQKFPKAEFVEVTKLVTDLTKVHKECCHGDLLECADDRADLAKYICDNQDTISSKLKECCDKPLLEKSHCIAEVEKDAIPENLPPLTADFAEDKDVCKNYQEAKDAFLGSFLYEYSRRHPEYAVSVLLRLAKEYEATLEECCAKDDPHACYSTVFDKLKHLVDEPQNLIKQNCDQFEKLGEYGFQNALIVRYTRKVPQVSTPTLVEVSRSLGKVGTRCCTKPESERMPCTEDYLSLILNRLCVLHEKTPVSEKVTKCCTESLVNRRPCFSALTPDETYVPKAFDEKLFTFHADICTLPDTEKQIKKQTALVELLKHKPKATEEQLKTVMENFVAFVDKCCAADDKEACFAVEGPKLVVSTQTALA
Method: as §1

human TNF-alpha [4] = molecular target: T2, human TNF-alpha; assay: Biacore (SPR)
rat TNF-alpha [5] = molecular target: B2; assay: antigen cross-reactivity, as described in the Examples above
VL18-3L-VL11 PEP DI #7 [6] = molecular target: T1, VL18-3L-VL11 PEP DI #7; assay: as above
rat albumin = molecular target: B1; assay: Biacore (SPR)
human albumin = molecular target: T4, human albumin (human, UniProt P02768 25-609); assay: Biacore (SPR)
T4 construct: also called human serum albumin; albumin from human sera
T4 sequence (P02768 25-609 limits assumed): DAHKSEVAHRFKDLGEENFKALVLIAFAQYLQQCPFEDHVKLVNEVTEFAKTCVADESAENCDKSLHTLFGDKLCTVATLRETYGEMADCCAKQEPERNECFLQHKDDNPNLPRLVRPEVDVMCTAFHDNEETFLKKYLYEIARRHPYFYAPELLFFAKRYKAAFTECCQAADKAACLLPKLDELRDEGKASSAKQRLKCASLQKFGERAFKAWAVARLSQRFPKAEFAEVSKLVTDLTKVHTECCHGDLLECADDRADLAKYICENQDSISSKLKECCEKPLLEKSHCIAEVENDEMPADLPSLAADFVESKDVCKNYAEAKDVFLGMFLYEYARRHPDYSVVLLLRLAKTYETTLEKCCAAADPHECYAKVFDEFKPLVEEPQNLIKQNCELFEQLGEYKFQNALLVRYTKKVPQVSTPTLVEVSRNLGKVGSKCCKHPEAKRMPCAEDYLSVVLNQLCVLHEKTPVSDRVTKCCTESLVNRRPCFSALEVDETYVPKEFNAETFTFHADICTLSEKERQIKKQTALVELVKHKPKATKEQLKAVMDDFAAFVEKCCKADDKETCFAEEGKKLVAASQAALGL

mouse albumin = molecular target: T5, mouse albumin (mouse, UniProt P07724 25-608); assay: antigen cross-reactivity, as described in the Examples above
T5 construct: also called mouse serum albumin; albumin from mouse sera

Binder	binding result (human TNF-alpha [2])	binding result (rat TNF-alpha [3])	binding result (BSA)	Kd (human TNF-alpha [4])	binding result (rat TNF-alpha [5])	other results
B1						Kd (VL18-3L-VL11 PEP DI #7 [1]): 28.1 nM
VL18-VL18 3L (other, Hexahistidine tail and HA tag; also called VL18-3L-VL18; VL18-18 #3L) single chain VL-VL dimer: ELVLTQTPASVEAAVGGTVTIKCQASQSISSYLAWYQQKPGHPPKLLIYKASTLASGVSSRFKGSGSGTEFTLTISDLECADAATYYCQSTYLGGTYVGGAFGGGTELEILSGGGGSGGGGSGGGGSSGELVLTQTPASVEAAVGGTVTIKCQASQSISSYLAWYQQKPGHPPKLLIYKASTLASGVSSRFKGSGSGTEFTLTISDLECADAATYYCQSTYLGGTYVGGAFGGGTELEIL	binds	binds	no binding			
VL18-3L-VL11 DI #3 (other, also called Variant 3) ELVLTQQPASVEAAPGGTVTIKCQASQSISSYLAWYQQKPGHPPKLLIYKVSTRASGVSSRFSGSGSGTEFTLTISDLKSADAATYYCQSTYLGGTYVGGAFGGGTELEIKSGGGGSGGGGSGGGGSSGELVMTQQPASVEAAPGGTVTIKCQASQSISSYLAWYQQKPGQPPKLLIYRVSTRASGVSSRFSGSGSGTEFTLTISDLKSADAATYYCQSTYVNRGSVAAFGGGTKVVVKYPYDVPDYA				0.7 nM	binds	
VL18-3L-VL11 DI #1 (other, Cloned in pET28a; also called Variant 1) ELVLTQQPASVEAAPGGTVTIKCQASQSISSYLAWYQQKPGHPPKLLIYKVSTRASGVSSRFSGSGSGTEFTLTISDLKSADAATYYCQSAYLGGTYVGGAFGGGTELEIKSGGGGSGGGGSGGGGSSGELVMTQQPASVEAAPGGTVTIKCQASQSISSYLAWYQQKPGQPPKLLIYRVSTRASGVSSRFSGSGSGTEFTLTISDLKSADAATYYCQSAYVNRGSVASFGGGTKVVVKYPYDVPDYA					binds	
VL18-3L-VL11 DI #5 (other, also called Variant 5) ELVLTQQPASVEAAPGGTVTIKCQASQSISSYLAWYQQKPGHPPKLLIYKASTLASGVSSRFSGSGSGTEFTLTISDLKSADAATYYCQSTYLGGTYVGGAFGGGTELEIKSGGGGSGGGGSGGGGSSGELVMTQQPASVEAAPGGTVTIKCQASQSISSYLAWYQQKPGQPPKLLIYRASTLASGVSSRFSGSGSGTEFTLTISDLKSADAATYYCQSTYVNRGSVAAFGGGTKVVVKYPYDVPDYA				0.8 nM	binds	
VL11-VL11 3L (other, Hexahistidine tail and HA tag; also called VL11-3L-VL11; VL11-11 #3L) single chain VL-VL dimer: ELVMTQTPASVEAAVGGTVTIKCQASQSISRYLAWYQQKPGQPPKLLIYRASTLASGVSSRFKGSGSGTEFTLTISDLECADAATYYCQSTYVNRGSVAAFGGGTEVVVKSGGGGSGGGGSGGGGSSGELVMTQTPASVEAAVGGTVTIKCQASQSISRYLAWYQQKPGQPPKLLIYRASTLASGVSSRFKGSGSGTEFTLTISDLECADAATYYCQSTYVNRGSVAAFGGGTEVVVK	binds	binds	no binding			
B2						binding result (VL18-3L-VL11 PEP DI #7 [6]): binds
VL11-VL18 3L (other, Hexahistidine tail and HA tag; also called VL11-3L-VL18; VL11-18 #3L) single chain VL-VL dimer: ELVMTQTPASVEAAVGGTVTIKCQASQSISRYLAWYQQKPGQPPKLLIYRASTLASGVSSRFKGSGSGTEFTLTISDLECADAATYYCQSTYVNRGSVAAFGGGTEVVVKSGGGGSGGGGSGGGGSSGELVLTQTPASVEAAVGGTVTIKCQASQSISSYLAWYQQKPGHPPKLLIYKASTLASGVSSRFKGSGSGTEFTLTISDLECADAATYYCQSTYLGGTYVGGAFGGGTELEIL	binds	binds	no binding			
VL18-3L-VL11 DI3-PEP DI #8 (other, De-immunized dimer DI #3 fused to de-immunized PEP; also called Variant 8) ELVLTQQPASVEAAPGGTVTIKCQASQSISSYLAWYQQKPGHPPKLLIYKVSTRASGVSSRFSGSGSGTEFTLTISDLKSADAATYYCQSTYLGGTYVGGAFGGGTELEIKSGGGGSGGGGSGGGGSSGELVMTQQPASVEAAPGGTVTIKCQASQSISSYLAWYQQKPGQPPKLLIYRVSTRASGVSSRFSGSGSGTEFTLTISDLKSADAATYYCQSTYVNRGSVAAFGGGTKVVVKSGGGGSGGGGSGGGGSSGDITGAALLEAKDAAINELKQYGISDYYVHLINKADTVEGVNALKDEILSALPYPYDVPDYA				0.6 nM		Kd (rat albumin): 22.4 nM; Kd (human albumin): 88.5 nM
VL18-3L-VL11 DI5-PEP DI #9 (other, De-immunized dimer DI #5 fused to de-immunized PEP; also called Variant 9) ELVLTQQPASVEAAPGGTVTIKCQASQSISSYLAWYQQKPGHPPKLLIYKASTLASGVSSRFSGSGSGTEFTLTISDLKSADAATYYCQSTYLGGTYVGGAFGGGTELEIKSGGGGSGGGGSGGGGSSGELVMTQQPASVEAAPGGTVTIKCQASQSISSYLAWYQQKPGQPPKLLIYRASTLASGVSSRFSGSGSGTEFTLTISDLKSADAATYYCQSTYVNRGSVAAFGGGTKVVVKSGGGGSGGGGSGGGGSSGDITGAALLEAKDAAINELKQYGISDYYVHLINKADTVEGVNALKDEILSALPYPYDVPDYA				0.4 nM	binds	Kd (rat albumin): 32 nM; Kd (human albumin): 92 nM; binding result (mouse albumin): binds
